Test results as given in paper PMC3140584, “Structure–function relationships of the competence lipoprotein ComL and SSB in meningococcal transformation”.

T1: ComL (Neisseria meningitidis MC58, UniProt Q9K0B1 17-267)
T1 sequence: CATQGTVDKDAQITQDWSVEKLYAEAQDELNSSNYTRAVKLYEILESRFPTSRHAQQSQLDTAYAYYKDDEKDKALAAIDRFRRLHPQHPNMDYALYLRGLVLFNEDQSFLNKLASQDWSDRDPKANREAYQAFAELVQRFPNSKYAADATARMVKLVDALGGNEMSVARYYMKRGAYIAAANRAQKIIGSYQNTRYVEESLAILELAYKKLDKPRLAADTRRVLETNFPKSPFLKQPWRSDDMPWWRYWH

B1: HH10 ssDNA without DUS (ssDNA)
DNA: AACAACAACAAAAGGCCTGTCATCCAACTTCCGGACAGTAAACAACAACAAC
B2: HH10/HH11 dsDNA without DUS (dsDNA)
DNA 1: B1 DNA
DNA 2: GTTGTTGTTGTTTACTGTCCGGAAGTTGGATGACAGGCCTTTTGTTGTTGTT

Biological target: T1, ComL
Experiment: EMSA; 5 mM Mg2+; EMSA: 4.5 fmol DNA in 10 µl; 10% glycerol, 5 mM MgCl2, 0.02 mg/ml BSA, 1 mM DTT, with half volume of protein in 50 mM NaH2PO4, 300 mM NaCl, pH 8.0, 0.1% DDM (final about 25 mM phosphate, 150 mM NaCl, 0.05% DDM); 37 °C, 15 min; 6% PAGE Tris/glycine/EDTA
Settings: protein: recombinant, tags: C-terminal 6xHis, label: 5'-32P

| Binder | apparent K (half saturation) [nM] | apparent K (half saturation) (blunt) [nM] |
| --- | --- | --- |
| B1 | 926 | – |
| B2 | – | 467 |
